Legend:
[1] = biological target: heated (56° C., 15 minutes) Der f 2-IgE antibody in clinical-case serum of allergic dogs (canine); experiment: Der f 2-IgE ELISA, serum after heating, specimen containing pathogenic IgE antibody
[2] = biological target: heated (56° C.) Der f 2-IgE antibody in experimental canine serum (canine); experiment: Der f 2-IgE ELISA, serum after heating, specimen containing non-pathogenic IgE antibody
[3] = biological target: non-heated Der f 2-IgE antibody in clinical-case serum of allergic dogs (canine); experiment: Der f 2-IgE ELISA, serum before heating, specimen containing pathogenic IgE antibody
[4] = biological target: feline serum IgE antibody of allergy cases, after heating (feline); experiment: IgE ELISA of feline serum on immobilised Dermatophagoides Farinae allergen, 6C12 detection; Allergy case, Cat 1
[5] = biological target: feline serum IgE antibody of allergy cases, after heating (feline); experiment: IgE ELISA of feline serum on immobilised Dermatophagoides Farinae allergen, 6C12 detection; Allergy case, Cat 3
[6] = biological target: non-heated Der f 2-IgE antibody in experimental canine serum (beagles sensitized with Der f 2 and alum) (canine); experiment: Der f 2-IgE ELISA, serum before heating, specimen containing non-pathogenic IgE antibody
[7] = biological target: T1, Peptide (-3C) with 6×His tag and GS linker (canine); experiment: ELISA, His-tagged peptide captured by anti-His tag antibody, biotinylated 6C12
T1 construct: 3 amino acids deleted from the C terminal
T1 peptide: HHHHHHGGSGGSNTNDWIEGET

[8] = biological target: T2, Peptide (-2C) with 6×His tag and GS linker (canine); experiment: as above
T2 construct: 2 amino acids deleted from the C terminal
T2 peptide: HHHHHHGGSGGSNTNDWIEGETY

[9] = biological target: T3, Peptide (-4) with 6×His tag and GS linker (canine); experiment: as above
T3 construct: 4 amino acids deleted from the N terminal of Peptide-full
T3 peptide: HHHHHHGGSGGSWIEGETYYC

[10] = biological target: T4, Peptide (-5C) with 6×His tag and GS linker (canine); experiment: as above
T4 construct: 5 amino acids deleted from the C terminal
T4 peptide: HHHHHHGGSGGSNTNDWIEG

[11] = biological target: T5, Peptide (-4C) with 6×His tag and GS linker (canine); experiment: as above
T5 construct: 4 amino acids deleted from the C terminal
T5 peptide: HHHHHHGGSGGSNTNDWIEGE

[12] = biological target: T6, Peptide (-1C) with 6×His tag and GS linker (canine); experiment: as above
T6 construct: 1 amino acid deleted from the C terminal
T6 peptide: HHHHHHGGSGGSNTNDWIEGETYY

[13] = biological target: feline serum IgE antibody of allergy cases, after heating (feline); experiment: IgE ELISA of feline serum on immobilised Dermatophagoides Farinae allergen, 6C12 detection; Allergy case, Cat 2

Der f 2-IgE concentration detected by 6C12 [1]: 848 ng/mL | Der f 2-IgE concentration detected by 6C12 [2]: 1050 ng/mL | Der f 2-IgE concentration detected by 6C12 [3]: 0 ng/mL | IgE level detected by 6C12, After heating [4]: 89 ng/mL | IgE level detected by 6C12, After heating [5]: 91 ng/mL | binding result [7]: no binding | binding result [8]: no binding | binding result [9]: no binding | binding result [10]: no binding | binding result [11]: no binding | binding result [12]: no binding | IgE level detected by 6C12, After heating [13]: 34 ng/mL
B1: 6C12 (monoclonal antibody produced from hybridoma clone 6C12, mouse IgG1κ) (antibody, V domains shown)
VH: EVQLVESGGGLVQPKGSLKLSCAASGFNFNAYVMNWVRQAPGKGLEWVSRIRSKSNNYATYYADSVKDRFTISRDDSESMLYLQMNNLKTEDTAMYYCVRPDYYGGSPFAYWGQGTLVTVSA
VL: QIVLTQSPAIMSASPGEKVTISCSASSSVSYMYWYQQKPGSSPKPWIYRTSNLASGVPARFGGSGSGTSYSLTISSMEAEDAATYYCQQYHSYPPTFGVGTKLELK
notes: Mouse IgG1κ purified from ascites on Protein G; used biotin-labelled (ELISA, flow cytometry) or FITC-labelled (RBL-2H3); 129-174); also called 6C12 antibody; purified 6C12
Der f 2-IgE concentration detected by 6C12 [6]: 1050 ng/mL

Reference: US20210355237A1 (RIKEN, published 2021)
